Substitutions are numbered along the chain they refer to.
Columns and labels:
[1] = target: T1, Amyloid Beta (antigen of the Amyloid Beta ELISA) (UniProt P05067 672-713, limits assumed); assay: Amyloid Beta ELISA, conditioned medium from transient transfection
[2] = target: T2, amyloid beta 1-42 monomers (UniProt P05067 672-713); assay: SPR (BIACORE), Aβ1-42 monomers immobilized on CM5 chip, antibody 0.05-1.0 µM
T2 construct: domain: amyloid beta 1-42; also called Aβ1-42 monomers; amyloid monomers
Description: (§1) BIACORE® technology utilizes changes in the refractive index at the surface layer upon binding of the antibody to the antigen immobilized on the layer. Binding is detected by surface plasmon resonance (SPR) of laser light refracting from the surface. Analysis of the signal kinetics on rate and off rate allows the discrimination between non-specific and specific interaction. The concentration of antibody used was in the range of 0.05 μM to 1.0 μM.

amyloid beta 1-42 fibers = target: T3, amyloid beta 1-42 fibers (UniProt P05067 672-713); assay: SPR (BIACORE), Aβ1-42 fibers immobilized on CM5 chip, antibody 0.05-1.0 µM
T3 construct: domain: amyloid beta 1-42; Many copies per fiber; also called Aβ1-42 fibers; fibrillar Aβ1-42
Description: as §1

[3] = target: T1, Amyloid Beta (antigen of the Amyloid …); assay: Amyloid Beta ELISA, purified antibodies

T2 sequence (P05067 672-713 limits assumed): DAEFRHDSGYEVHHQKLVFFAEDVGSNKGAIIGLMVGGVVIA
T3 sequence (P05067 672-713 limits assumed): as above
T1 sequence (P05067 672-713 limits assumed): as above

B1: C2 HuVH AF version 3 combined with the chimeric C2 kappa chain (antibody, V domains shown)
VH: EVQLVESGGGLVQPGGSLRLSCAASGFTFSSYGMSWVRQAPGKGLELVASINSNGGSTYYPDSVKGRFTISRDNAKNSLYLQMNSLRAEDTAVYYCARGDYWGQGTTVTVSS
VL: DVVMTQTPLSLPVSLGDQASISCRSSQSLVYSNGDTYLHWYLQKPGQSPKLLIYKVSNRFSGVPDRFSGSGSGTDFTLKISRVEAEDLGVYFCSQSTHVPWTFGGGTKLEIK
notes: Transient expression in HEK293; also called C2HuVHAF3/ChVK
**Q.** Does B1 bind [1]?
**A.** no binding

B2: humanized antibody C2HuVH4/HuVK1 (antibody, human IgG4 S228P, kappa, V domains shown)
VH: B1 VH with R98S
VL: DIVMTQSPLSLPVTPGEPASISCRSSQSLVYSNGDTYLHWYLQKPGQSPQLLIYKVSNRFSGVPDRFSGSGSGTDFTLKISRVEAEDVGVYYCSQSTHVPWTFGQGTKVEIKR
notes: also called H4K1; humanized H4K1
**Q.** For B2, which Kd [2] is on record?
**A.** 19 nM

**Q.** What about the koff [2] of the same binder?
**A.** 0.00095 s⁻¹

**Q.** And the kon [2]?
**A.** 50000 M⁻¹ s⁻¹

**Q.** What about the Kd (amyloid beta 1-42 fibers) of the same binder?
**A.** 4.7 nM

**Q.** And the koff (amyloid beta 1-42 fibers)?
**A.** 0.00023 s⁻¹

**Q.** What about the kon (amyloid beta 1-42 fibers) of the same binder?
**A.** 49000 M⁻¹ s⁻¹

B3: humanized antibody C2 HuVH2/HuVK3 (antibody, human IgG4 S228P, kappa, V domains shown)
VH: B1 VH with L47W, R98S
VL: B2 VL with Q50K
notes: also called C2HuVHAF2 with C2HuVK3
**Q.** B3 was tested. Which “fold reduction of binding activity against chimeric control antibody C2 ChVHAF/ChVK” value [3] did it give?
**A.** ~2 fold

B4: chimeric antibody C2 ChVH AF/ChVK (antibody, human IgG4 S228P, kappa, V domains shown)
VH: EVQLVESGGGLVQPGGSLKLSCAASGFTFSSYGMSWVRQTPDKRLELVASINSNGGSTYYPDSVKGRFTISRDNAKNTLYLQMSSLKSEDTAMYYCASGDYWGQGSTLTVSS
VL: DVVMTQTPLSLPVSLGDQASISCRSSQSLVYSNGDTYLHWYLQKPGQSPKLLIYKVSNRFSGVPDRFSGSGSGTDFTLKISRVEAEDLGVYFCSQSTHVPWTFGGGTKLEIKR
notes: also called C2 VH AF/C2 VK chimeric antibody; chimeric AF
**Q.** B4 was tested. Which Kd [2] did it give?
**A.** 20 nM

**Q.** And the koff [2]?
**A.** 0.00095 s⁻¹

**Q.** And the kon [2]?
**A.** 47000 M⁻¹ s⁻¹

**Q.** And the Kd (amyloid beta 1-42 fibers)?
**A.** 6.5 nM

**Q.** What about the koff (amyloid beta 1-42 fibers) of the same binder?
**A.** 0.00033 s⁻¹

**Q.** And the kon (amyloid beta 1-42 fibers)?
**A.** 51000 M⁻¹ s⁻¹

Source: US20100150906A1 (AC IMMUNE S A, published 2010)
